# Experimental data published in PMC5467005, “Functional Characterization of Tea (Camellia sinensis) MYB4a Transcription Factor Using an Integrative Approach”.
# Residue numbers refer to the chain shown, from its start.
# B1: AC-I probe (dsDNA)
# DNA 1: CGGTACCAGTCCACCTACCGCCACCTACCGCCACCTACCGCTGTTCTCGA
# DNA 2: TCGAGAACAGCGGTAGGTGGCGGTAGGTGGCGGTAGGTGGACTGGTACCG
# B2: AC-II probe (dsDNA)
# DNA 1: B1 DNA 1 with T16A, T26A, T36A
# DNA 2: B1 DNA 2 with A15T, A25T, A35T
# B3: AC-III probe (dsDNA)
# DNA 1: CCAGTCCACCTAACTCTACCTAACTCTACCTAACGCTGTTC
# DNA 2: GAACAGCGTTAGGTAGAGTTAGGTAGAGTTAGGTGGACTGG
# B4: AC-IV probe (dsDNA)
# DNA 1: B3 DNA 1 with T11A, T21A, T31A
# DNA 2: B3 DNA 2 with A11T, A21T, A31T
# Molecular target: CsMYB4a (Camellia sinensis, UniProt A0A1V0G0T8 1-244)
# Sequence (A0A1V0G0T8 entry or part of it): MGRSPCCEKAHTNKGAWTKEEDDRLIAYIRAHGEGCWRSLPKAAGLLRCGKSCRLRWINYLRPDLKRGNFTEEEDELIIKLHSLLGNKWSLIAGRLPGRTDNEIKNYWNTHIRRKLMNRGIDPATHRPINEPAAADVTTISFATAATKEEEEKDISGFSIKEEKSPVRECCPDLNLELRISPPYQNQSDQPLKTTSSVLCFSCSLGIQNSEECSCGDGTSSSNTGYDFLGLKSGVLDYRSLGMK
# Experiment: EMSA; Not given; EMSA according to Shen et al. 2012; salmon sperm DNA as non-specific competitor
# Conditions: protein: recombinant; tags: N-terminal His-tag; blunt
row,Binder,binding result
1,B1,binds
2,B2,binds
3,B3,binds
4,B4,binds
